Drawing on paper PMC10505919, this text covers Kd for one substance.

The target in this experiment is Chlamydomonas reinhardtii RabL2, wild type (Chlamydomonas reinhardtii). Kind of experiment: ITC. On the technique in general: ITC needs no label: the signal is the heat of the interaction.

Take “Chlamydomonas reinhardtii CEP19 residues 1-208 (domain or fragment)”: the Kd – broadly, the free concentration of one partner at which half of the binding sites on the other are occupied at equilibrium, for simple one-to-one binding – came out at 12.7 µM.
